According to article PMC4979867, “Reconstitution of the membrane protein OmpF into biomimetic block copolymer–phospholipid hybrid membranes” (Beilstein Journal of Nanotechnology, 2016):

Target: the molecule itself
Test: SDS-PAGE of the unboiled sample; purified OmpF in 1% octyl-POE, sample not boiled before SDS-PAGE

B1: outer membrane protein OmpF from Escherichia coli (natural protein, UniProt P02931 23-362, looked up)
chain: AEIYNKDGNKVDLYGKAVGLHYFSKGNGENSYGGNGDMTYARLGFKGETQINSDLTGYGQWEYNFQGNNSEGADAQTGNKTRLAFAGLKYADVGSFDYGRNYGVVYDALGYTDMLPEFGGDTAYSDDFFVGRVGGVATYRNSNFFGLVDGLNFAVQYLGKNERDTARRSNGDGVGGSISYEYEGFGIVGAYGAADRTNLQEAQPLGNGKKAEQWATGLKYDANNIYLAANYGETRNATPITNKFTNTSGFANKTQDVLLVAQYQFDFGLRPSIAYTKSKAKDVEGIGDVDLVNYFEVGATYYFNKNMSTYVDYIINQIDSDNKLGVGSDDTVAVGIVYQF
notes: Outer membrane porin OmpF, Escherichia coli, native protein from strain B^E BL21(DE3)omp6 (lacks LamB and OmpC); no residues or identifiers printed; The protein here comes from an E. coli B strain, whose OmpF may differ from it at a few positions; also called native OmpF protein
- stoichiometry N: 3
